In the supplement of paper PMC9112550, “Optimization of the antimicrobial peptide Bac7 by deep mutational scanning” (BMC Biology, 2022):

Test system: Escherichia coli TOP10
Assay: shrunken log2 fold change of peptide-encoding DNA abundance (4.5 h post-induction vs induction); higher = less antimicrobial activity (less host growth inhibition)
Settings: time post-induction: 4.5 h; library: site-saturation at positions 5, 18, 19, 20
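Further: peptides expressed intracellularly from a pBAD plasmid library in pooled LB shake-flask culture, induced with 0.3% L-arabinose, DNA abundance read by NGS, three biological replicates, DESeq2 with apeglm shrinkage.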

Row | Sequence | shrunken log2 fold change
1 | RRIRGRPPRLPRPRPRPHGNPRP | 0.365
2 | RRIRMRPPRLPRPRPRPIEAPRP | 0.111
3 | RRIRARPPRLPRPRPRPKMKPRP | 0.131
4 | RRIRGRPPRLPRPRPRPRCPPRP | 1.4
5 | RRIRWRPPRLPRPRPRPTQNPRP | 0.637
6 | RRIRPRPPRLPRPRPRPPLQPRP | 0.327
7 | RRIRMRPPRLPRPRPRPQRDPRP | 0.0785
8 | RRIRERPPRLPRPRPRPVAEPRP | 0.0949
9 | RRIRERPPRLPRPRPRPVKHPRP | 0.0875
10 | RRIRKRPPRLPRPRPRPFFLPRP | 0.225
11 | RRIRARPPRLPRPRPRPRRRPRP | 0.888
12 | RRIRYRPPRLPRPRPRPQGWPRP | 0.031
13 | RRIRNRPPRLPRPRPRPVGTPRP | -0.073
14 | RRIRQRPPRLPRPRPRPSNTPRP | -0.824
15 | RRIRYRPPRLPRPRPRPGLMPRP | -0.103
16 | RRIRFRPPRLPRPRPRPEYYPRP | -0.0413
17 | RRIRVRPPRLPRPRPRPPWQPRP | 0.44
18 | RRIRYRPPRLPRPRPRPNALPRP | -0.236
19 | RRIRHRPPRLPRPRPRPSATPRP | -0.00655
20 | RRIRPRPPRLPRPRPRPQSAPRP | 1.69
21 | RRIRKRPPRLPRPRPRPRDAPRP | 0.558
22 | RRIRRRPPRLPRPRPRPGTTPRP | 0.462
23 | RRIRVRPPRLPRPRPRPWFSPRP | -0.128
24 | RRIRIRPPRLPRPRPRPLSDPRP | 0.0446
25 | RRIRDRPPRLPRPRPRPIDFPRP | 0.132

Row | Sequence | shrunken log2 fold change
26 | RRIRPRPPRLPRPRPRPRNPPRP | 0.405
27 | RRIRVRPPRLPRPRPRPSTWPRP | -0.184
28 | RRIRYRPPRLPRPRPRPKCQPRP | -0.182
29 | RRIRTRPPRLPRPRPRPKMWPRP | 0.307
30 | RRIRIRPPRLPRPRPRPKTYPRP | -0.879
31 | RRIRWRPPRLPRPRPRPGRHPRP | 0.458
32 | RRIRGRPPRLPRPRPRPNFLPRP | -0.0918
33 | RRIRPRPPRLPRPRPRPIDKPRP | -0.188
34 | RRIRIRPPRLPRPRPRPHMKPRP | -0.809
35 | RRIRIRPPRLPRPRPRPKFGPRP | 0.0227
36 | RRIRRRPPRLPRPRPRPPAEPRP | 0.851
37 | RRIRFRPPRLPRPRPRPCKLPRP | -1.48
38 | RRIRGRPPRLPRPRPRPWRCPRP | 0.0546
39 | RRIRARPPRLPRPRPRPLRFPRP | 0.396
40 | RRIRLRPPRLPRPRPRPENLPRP | 0.0256
41 | RRIRTRPPRLPRPRPRPMRIPRP | -0.0254
42 | RRIRNRPPRLPRPRPRPGKEPRP | -0.311
43 | RRIRQRPPRLPRPRPRPKEDPRP | -0.0372
44 | RRIRHRPPRLPRPRPRPKTFPRP | -0.45
45 | RRIRPRPPRLPRPRPRPAWFPRP | 0.117
46 | RRIRGRPPRLPRPRPRPPPNPRP | 1.27
47 | RRIRTRPPRLPRPRPRPWYSPRP | -0.818
48 | RRIRLRPPRLPRPRPRPWSVPRP | -0.0834
49 | RRIRARPPRLPRPRPRPMEAPRP | -0.047
50 | RRIRHRPPRLPRPRPRPSMFPRP | -0.163

Row | Sequence | shrunken log2 fold change
51 | RRIRLRPPRLPRPRPRPKHLPRP | -0.364
52 | RRIRARPPRLPRPRPRPHIEPRP | -0.0716
53 | RRIRIRPPRLPRPRPRPWYPPRP | -0.238
54 | RRIRSRPPRLPRPRPRPIANPRP | -0.0897
55 | RRIRIRPPRLPRPRPRPLARPRP | 0.346
56 | RRIRCRPPRLPRPRPRPQYKPRP | -0.991
57 | RRIRTRPPRLPRPRPRPFICPRP | -0.292
58 | RRIRSRPPRLPRPRPRPYCKPRP | -0.327
59 | RRIRYRPPRLPRPRPRPQWRPRP | 0.0697
60 | RRIRHRPPRLPRPRPRPLGSPRP | 0.0703
61 | RRIRSRPPRLPRPRPRPADAPRP | 0.0403
62 | RRIRERPPRLPRPRPRPDGYPRP | 0.0107
63 | RRIRWRPPRLPRPRPRPGAWPRP | 0.373
64 | RRIRIRPPRLPRPRPRPADRPRP | -0.123
65 | RRIRYRPPRLPRPRPRPHKAPRP | -0.0167
66 | RRIRKRPPRLPRPRPRPMQLPRP | 0.197
67 | RRIRKRPPRLPRPRPRPREGPRP | 1.08
68 | RRIRYRPPRLPRPRPRPFYWPRP | -1.7
69 | RRIRGRPPRLPRPRPRPQKAPRP | -0.027
70 | RRIRFRPPRLPRPRPRPIFRPRP | -0.0966
71 | RRIRLRPPRLPRPRPRPVTKPRP | 0.0485
72 | RRIRPRPPRLPRPRPRPPCGPRP | 0.254
73 | RRIRPRPPRLPRPRPRPHPRPRP | 0.597
74 | RRIRVRPPRLPRPRPRPGNAPRP | 0.133
75 | RRIRQRPPRLPRPRPRPVVSPRP | -0.179
